Measurements reported in US20190185575A1 (ONCOTHERAPY SCIENCE, published 2019).

Target: T1, human MELK protein (Maternal Embryonic Leucine zipper Kinase), full-length (human, UniProt Q14680 1-651)
T1 construct: It was detected in formalin-fixed paraffin sections (IHC) or in RIPA lysates after SDS-PAGE (western blot); MELK is an intracellular kinase, so 'on cells' here means in cells or sections; also called full-length MELK protein; endogenous MELK protein
Assay: immunohistochemical staining of formalin-fixed paraffin sections, MELK/293T vs Mock/293T
Protocol: For antigen activation, sections immersed in the antigen-activating solution, pH 9 (Nichirei Biosciences Inc.) were incubated at 125° C. for 30 seconds. After incubation, these were left to stand for 20 minutes at room temperature, and washed for 5 minutes under running water. After immersing them in 3.0% hydrogen peroxide water for 10 minutes to perform blocking of endogenous peroxidase, they were washed with Wash Buffer (TBS-T (Takara Bio)) three times for 5 minutes. Furthermore, with the aim of blocking non-specific reactions, a suitable amount of Protein Block Solution (Dako) was dropped onto the sections and then left to stand for 10 minutes. The primary antibodies (OTSMAb01, MELK(N449)pAb, MELK(HPA017214)pAb) were respectively dropped in suitable amounts within a humid box, left to stand for 60 minutes, and then washed with the Wash Buffer three times for 5 minutes. Histofine Simple Stain MAX PO (Nichirei Biosciences Inc.) was dropped in suitable amounts as the secondary antibody in a humid box, and left to stand for 30 minutes. These were then washed with the Wash Buffer three times for 5 minutes. The chromogenic reaction was done using the DAB substrate solution (Nichirei Biosciences Inc.). The slide sections were immersed for 20 seconds in haematoxylin (Dako), and washed under running water. […]

T1 sequence (Q14680 whole entry): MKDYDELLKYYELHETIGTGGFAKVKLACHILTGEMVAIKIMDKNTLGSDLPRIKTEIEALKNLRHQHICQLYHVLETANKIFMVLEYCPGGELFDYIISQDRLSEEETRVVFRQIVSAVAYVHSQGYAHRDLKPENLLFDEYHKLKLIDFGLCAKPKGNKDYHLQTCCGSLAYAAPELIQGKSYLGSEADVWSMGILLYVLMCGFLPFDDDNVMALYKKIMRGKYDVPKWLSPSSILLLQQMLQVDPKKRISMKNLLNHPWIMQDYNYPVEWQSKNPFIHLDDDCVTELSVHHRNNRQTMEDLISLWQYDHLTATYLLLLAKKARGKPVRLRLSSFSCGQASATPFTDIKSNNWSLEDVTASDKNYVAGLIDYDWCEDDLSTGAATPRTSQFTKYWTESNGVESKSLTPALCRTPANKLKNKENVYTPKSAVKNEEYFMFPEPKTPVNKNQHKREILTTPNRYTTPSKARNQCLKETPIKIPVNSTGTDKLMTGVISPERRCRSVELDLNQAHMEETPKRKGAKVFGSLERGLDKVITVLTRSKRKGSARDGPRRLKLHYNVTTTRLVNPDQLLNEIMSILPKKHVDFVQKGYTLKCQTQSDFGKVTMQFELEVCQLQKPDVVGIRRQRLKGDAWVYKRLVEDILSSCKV

- binding result: binds
B1: anti-MELK mouse monoclonal antibody clone OTSMAb01 (antibody, V domains shown)
VH: EVQLQQSGAELVRPGALVKLSCKASGFNIKDYYMHWVKQRPEQGLEWIGWIDPENGNTIYDPKFQGKASVTADTSSNTAYLQLSSLTSEDTAVYYCTSHHYSAMDYWGQGTSVTVSS
VL: DVVMTQTPLSLPVSLRDQASISCRSSQSLVHSNGNTYLHWYLQKPGQSPKLLIYKVSNRFSGVPDRFSGSGSGTDFTLIISRVEAEDLGVYFCSQSTYVPLTFGAGTKLELKR
notes: Mouse monoclonal antibody from a hybridoma (Balb/c splenocytes x SP2/0), purified from culture solution on a Protein A column; also called anti-MELK antibody (OTSMAb01); hybridoma clone OTSMAb01
